We go through four molecules from patent US11492376B2, “Toxoplasma gondii GRA8-derived recombinant peptides and composition for preventing or treating cancer comprising the same” (Industry—University Cooperation Foundation Hanyang …, priority 2019, dated 2022).

Assay [1] relates to mitochondrial targeting of GRA8. In words: Subcellular fractionation: mitochondrial localization of GRA8. Format: cell-based. As to conditions: 10 μM peptide, within 6 hours of incubation; 293T cells or BMDM. How it is done:
(§1) FIGS. 2A, 2B, 2C, 2D and 2E show the design and expression of an ATRAM-conjugated multifunctional GRA8 peptide (rATRAM-G8-M/AS)-based protein [(A) Subcellular fractionation of 293T cells was performed by expression of GST-GRA8 WT or incubation of WT rGRA8 with (1 μg/ml) BMDM and treatment with several Tat-GRA8 peptides for 6 hours (10 μM). Mitochondrial and cytosolic fractions were fractionated and analyzed for expression of GST by IB. The purity of the fractions was confirmed by blotting for VDAC (mitochondrial protein) and actin (cytosolic protein). (B) A mammalian GST-GRA8 construct was transfected into 293T cells for 12 hours with V5-ATP5A1 or Flag-SIRT3, and treated with several Tat-GRA8 peptides (10 μM) for 6 hours. The 293T cells were used for GST pulldown, followed by IB with αV5 or αFlag. WCL was used for IB with αGST, αV5, αFlag or αActin. (C) The schematic design of ATRAM-GRA8-M/AS and its mutants [ATRAM-G8-M/AS (SEQ ID NO: 1), ATRAM-G8-M (SEQ ID NO: 2), ATRAM (SEQ ID NO: 3)]. (D) 6×His-rATRAM-GRA8-M/AS purified with bacteria and its mutants were analyzed by Coomassie blue staining (left) or αHis immunoblotting (IB; right). (E) BMDM was incubated with rATRAM-GRA8-M/AS and its mutant (20 μg/ml) for indicated times, and cell viability was then measured by an MMT assay. Data represents four independent experiments with similar results (A, B, D and E)]. […]

For assay [2], the system named is GRA8-ATP5A1/SIRT3 interaction. In words: GST pulldown of GRA8-ATP5A1/SIRT3 interaction in 293T cells. Format: cell-based. As to conditions: 10 μM peptide, within 6 hours of incubation. On the procedure: as §1
In another assay the test system is HT-29. Put plainly: MTT assay of cell viability, HT-29 cells. Type of assay: cell-based, human. As to conditions: 20 μg/ml, over time. On the procedure:
(§2) FIGS. 1A, 1B and 1C: confirms that rGRA8 treatment increases HCT116 cell death by mitochondria pathways [(A and B). Various cancer cells were incubated with WT rGRA8 (20 μg/ml) and its mutants for indicated times and then cell viability was measured by MTT analysis (upper) and αATP5A1, αSIRT3 or αActin immunoblotting (lower) was performed. […] The cells were incubated with WT rGRA8 for indicated times and subjected to IP with αLys-AC or αHis and IB with αATP5A1, αATP5C1, αSIRT3, αPGC-1, αPKCα or αActin. Data represents five independent experiments with similar results. Significant differences were determined by comparison with rVector treatment (** P<0.01; *** P<0.001)].
(§3) As described in Non-Patent Document 1, the cell viability for a non-treated group was measured by an MTT assay. After incubation for an indicated time, 5 mg/ml of a 3-(4,5-dimethyl thiazol-2-yl)-2,5-diphenyltetrazoliumbromide (MTT) solution was added to a medium, and the cells were further incubated for 4 hours. Subsequently, all of the medium was removed, the same volume of a dimethyl sulfoxide (DMSO) solution was added for 15 minutes to dissolve formazan. Using a UV/VIS spectrophotometer, each well of a plate was measured at 540 nm to measure relative cell viability.
A general note: Formazan colour is commonly taken as a measure of viable cells.

The next assay has as its system HCT116 cells. In words: MTT assay of cell viability, HCT116 cells. Format: cell-based, human. How it is done:
as §2
FIGS. 4A, 4B, 4C, 4D and 4E show HCT116 cell death by rATRAM-GRA8-M/AS-induced mitochondrial activation [(A and B) HCT116 cells were incubated with WT rGRA8 or rATRAM-GRA8-M/AS and its mutants for indicated times, and then cell viability was measured with an MTT assay. […] The cells were stimulated with rATRAM-GRA8-M/AS for 1 day and subjected to enzymatic activity of OXPHOS V, and (C) MitoTracker fluorescence signals were assessed by flow cytometry. (D) A bar graph indicates a mitochondrial mass (MFI), and (E) the mtDNA content of BMDM was measured by quantitative real-time PCR. The mtDNA content was normalized by nuclear DNA. Significant differences were determined by comparison with control treatment (** P<0.01; *** P<0.001). Data represents five independent experiments with similar results].
as §3

Another assay concerns ATP5A1, SIRT3 and ATP5C1. In words: Immunoprecipitation/immunoblotting in HCT116 cells. Format: cell-based, human. The settings on record: IP/IB. How it is done:
as §2
For immunoprecipitation, cells were obtained, and then lysed in an NP-40 buffer supplemented with a complete protease inhibitor cocktail (Roche). After pre-purification with A/G agarose beads at 4° C. for 1 hour, a whole cell lysate was used for immunoprecipitation with indicated antibodies. […]
For immunoblotting, polypeptides were subjected to electrophoresis (PAGE) with an SDS-polyacrylamide gel, and then transferred to a PVDF membrane (Bio-Rad) for separation. […] Antibody binding was visualized by chemiluminescence (ECL; Millipore) and detected by a Vilber chemiluminescence analyzer (Fusion SL 3; Vilber Lourmat).
For orientation: In western blotting, separated proteins are transferred to a membrane and probed.

The subject of another assay is HCT116 xenografts. In words: HCT116 xenograft mouse model, antitumor activity. Format: in vivo, nude mouse. As to conditions: HCT116 xenograft mice.

As for GRKKRRQRRR (Tat) [reference compound], in assay [1], the “blocking of mitochondrial targeting of GRA8” value is given as “impossible”.

As to “GRKKRRQRRR-G-ATATTTTTTR (GRKKRRQRRRGATATTTTTTR; Tat-GRA8-(213-222)) [Tat-GRA8 (aa 213-222)]”, the “blocking of mitochondrial targeting of GRA8” value in assay [1] was “can effectively block mitochondrial targeting”.

On to “GRKKRRQRRR-G-YRFTVQTTQN (GRKKRRQRRRGYRFTVQTTQN; Tat-GRA8-(260-269)) [Tat-GRA8 (aa 260-269)]”, for which the “prevention of GRA8-ATP5A1/SIRT3 interaction” value in assay [2] was “able to effectively prevent”.

B1: rGRA8: recombinant His-tagged Toxoplasma gondii dense granule antigen 8, 269 amino acids; conventional GRA8-derived peptide (protein)
chain: MALPLRVSATVFVVFAVFGVARAMNGPLSYHPSSYGASYPNPSNPLHGMPKPENPVRPPPPGFHPSVIPNPPYPLGTPAGMPQPEVPPLQHPPPTGSPPAAAPQPPYPVGTPGMPQPEIPPVHRPPPPGFRPEVAPVPPYPVGTPTGMPQPEIPAVHHPFPYVTTTTTAAPRVLVYKIPYGGAAPPRAPPVPPRMGPSDISTHVRGAIRRQPATATTTTTTRNVLLRTAILAAAAATLIALFRQRPLFTEGVRMFPDFQYRFTVQTTQN
modifications: left off: small tags and cut ends
notes: recombinant His-tagged Toxoplasma gondii dense granule antigen 8, 269 amino acids; conventional GRA8-derived peptide
For the molecule B1, the “cell death in HT-29” value with HT-29 is on record as “induced cell death”. The “cell death in HCT116” value with HCT116 cells (20 μg/ml, over time, MTT) is given as “induced cell death”. Also, the “IC50 (HCT116 cell death)” value in the assay with HCT116 cells (HCT116 cells, MTT (FIG. 4A)) stood at 20 µg/mL. In the assay with ATP5A1, SIRT3 and ATP5C1, the ATP5A1 deacetylation result is listed as “increased ATP5A1 deacetylation”; the “binding of rGRA8 to ATP5A1, SIRT3 and ATP5C1” value was “significantly increased”. Further, the “IC50 (antitumor activity in xenograft)” value in the assay on HCT116 xenografts stood at 10 mg/kg.
